Assay results: patent US20120034160A1 (AbbVie / Abbott, published 2012)

T1: Recombinant Human IL-17 (human, UniProt Q16552 20-155, limits assumed)
T1 sequence (looked up): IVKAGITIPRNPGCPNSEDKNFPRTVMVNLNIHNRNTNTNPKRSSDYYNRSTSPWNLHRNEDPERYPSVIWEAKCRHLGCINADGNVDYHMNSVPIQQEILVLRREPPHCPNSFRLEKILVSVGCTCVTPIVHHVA


Tests used:
[1] = biological target: Recombinant Human IL-1β (human, UniProt P01584 117-269); experiment: cell-based or functional assay
[2] = biological target: T1, Recombinant Human IL-17; experiment: cell-based or functional assay

Row | Binder | C-Terminal VD IL-1β Neutralization Assay EC50 [1] | N-terminal VD IL-17 Neutralization Assay EC50 [2] | N-Terminal VD IL-1β Neutralization Assay EC50 [1] | C-terminal VD IL-17 Neutralization Assay EC50 [2]
1 | DVD1626 (bispecific antibody, human IgG1, kappa) heavy: not shown light: DIQMTQSPSSLSASVGDRVTITCRASSGIISYIDWFQQKPGKAPKRLIYATFDLASGVPSRFSGSGSGTDYTLTISSLQPEDFATYYCRQVGSYPETFGQGTKLEIKRTVAAPDTVVTQSPAFLSVTPGEKVTITCITSTDIDVDMNWYQQKPDQPPKLLISQGNTLRPGVPSRFSSSGSGTDFTFTISSLEAEDAATYYCLQSDNLPLTFGQGTKLEIKRTVAAPSVFIFPPSDEQLKSGTASVVCLLNNFYPREAKVQWKVDNALQSGNSQESVTEQDSKDSTYSLSSTLTLSKADYEKHKVYACEVTHQGLSSPVTKSFNRGEC | 17.4 nM | 0.0064 nM | – | –
2 | DVD1616 (bispecific antibody, human IgG1, kappa) heavy: not shown light: EIVLTQSPDFQSVTPKEKVTITCRASQNIGSELHWYQQKPDQSPKLLIKYASHSISGVPSRFSGSGSGTDFTLTINGLEAEDAATYYCHQSDTLPHTFGQGTKVDIKRTVAAPSVFIFPPDTVVTQSPAFLSVTPGEKVTITCITSTDIDVDMNWYQQKPDQPPKLLISQGNTLRPGVPSRFSSSGSGTDFTFTISSLEAEDAATYYCLQSDNLPLTFGQGTKLEIKRTVAAPSVFIFPPSDEQLKSGTASVVCLLNNFYPREAKVQWKVDNALQSGNSQESVTEQDSKDSTYSLSSTLTLSKADYEKHKVYACEVTHQGLSSPVTKSFNRGEC | 1.12 nM | 0.0062 nM | – | –
3 | DVD1613 (bispecific antibody, human IgG1, kappa) heavy: not shown light: DTQVTQSPSSLSASVGDRVTITCITSTDIDVDMNWYQQKPGKPPKLLISQGNTLRPGVPSRFSSSGSGTDFTFTISSLQPEDFATYYCLQSDNLPLTFGQGTKLEIKRTVAAPSVFIFPPEIVLTQSPDFQSVTPKEKVTITCRASQNIGSELHWYQQKPDQSPKLLIKYASHSISGVPSRFSGSGSGTDFTLTINGLEAEDAATYYCHQSDTLPHTFGQGTKVDIKRTVAAPSVFIFPPSDEQLKSGTASVVCLLNNFYPREAKVQWKVDNALQSGNSQESVTEQDSKDSTYSLSSTLTLSKADYEKHKVYACEVTHQGLSSPVTKSFNRGEC | – | – | 0.246 nM | 0.101 nM
4 | DVD1617 (bispecific antibody, human IgG1, kappa) heavy: not shown light: ETTVTQSPSSLSASVGDRVTITCITSTDIDVDMNWYQQKPGKPPKLLISQGNTLRPGVPSRFSSSGSGTDFTFTISSLQPEDFATYYCLQSDNLPLTFGQGTKLEIKRTVAAPSVFIFPPEIVLTQSPDFQSVTPKEKVTITCRASQNIGSELHWYQQKPDQSPKLLIKYASHSISGVPSRFSGSGSGTDFTLTINGLEAEDAATYYCHQSDTLPHTFGQGTKVDIKRTVAAPSVFIFPPSDEQLKSGTASVVCLLNNFYPREAKVQWKVDNALQSGNSQESVTEQDSKDSTYSLSSTLTLSKADYEKHKVYACEVTHQGLSSPVTKSFNRGEC | – | – | 0.247 nM | 0.0424 nM
5 | DVD1625 (bispecific antibody, human IgG1, kappa) heavy: not shown light: DTVVTQSPAFLSVTPGEKVTITCITSTDIDVDMNWYQQKPDQPPKLLISQGNTLRPGVPSRFSSSGSGTDFTFTISSLEAEDAATYYCLQSDNLPLTFGQGTKLEIKRTVAAPDIQMTQSPSSLSASVGDRVTITCRASSGIISYIDWFQQKPGKAPKRLIYATFDLASGVPSRFSGSGSGTDYTLTISSLQPEDFATYYCRQVGSYPETFGQGTKLEIKRTVAAPSVFIFPPSDEQLKSGTASVVCLLNNFYPREAKVQWKVDNALQSGNSQESVTEQDSKDSTYSLSSTLTLSKADYEKHKVYACEVTHQGLSSPVTKSFNRGEC | – | – | 0.522 nM | 0.0076 nM
6 | DVD1614 (bispecific antibody, human IgG1, kappa) heavy: not shown light: EIVLTQSPDFQSVTPKEKVTITCRASQNIGSELHWYQQKPDQSPKLLIKYASHSISGVPSRFSGSGSGTDFTLTINGLEAEDAATYYCHQSDTLPHTFGQGTKVDIKRTVAAPSVFIFPPDTQVTQSPSSLSASVGDRVTITCITSTDIDVDMNWYQQKPGKPPKLLISQGNTLRPGVPSRFSSSGSGTDFTFTISSLQPEDFATYYCLQSDNLPLTFGQGTKLEIKRTVAAPSVFIFPPSDEQLKSGTASVVCLLNNFYPREAKVQWKVDNALQSGNSQESVTEQDSKDSTYSLSSTLTLSKADYEKHKVYACEVTHQGLSSPVTKSFNRGEC | 0.801 nM | 0.0142 nM | – | –
7 | DVD1618 (bispecific antibody, human IgG1, kappa) heavy: not shown light: EIVLTQSPDFQSVTPKEKVTITCRASQNIGSELHWYQQKPDQSPKLLIKYASHSISGVPSRFSGSGSGTDFTLTINGLEAEDAATYYCHQSDTLPHTFGQGTKVDIKRTVAAPSVFIFPPETTVTQSPSSLSASVGDRVTITCITSTDIDVDMNWYQQKPGKPPKLLISQGNTLRPGVPSRFSSSGSGTDFTFTISSLQPEDFATYYCLQSDNLPLTFGQGTKLEIKRTVAAPSVFIFPPSDEQLKSGTASVVCLLNNFYPREAKVQWKVDNALQSGNSQESVTEQDSKDSTYSLSSTLTLSKADYEKHKVYACEVTHQGLSSPVTKSFNRGEC | 2.75 nM | 0.0045 nM | – | –
8 | DVD1620 (bispecific antibody, human IgG1, kappa) heavy: not shown light: DIQMTQSPSSLSASVGDRVTITCRASSGIISYIDWFQQKPGKAPKRLIYATFDLASGVPSRFSGSGSGTDYTLTISSLQPEDFATYYCRQVGSYPETFGQGTKLEIKRTVAAPDIQMTQSPSSLSASVGDRVTITCRASGNIHNYLTWYQQTPGKAPKLLIYNAKTLADGVPSRFSGSGSGTDYTFTISSLQPEDIATYYCQHFWSIPYTFGQGTKLQITRTVAAPSVFIFPPSDEQLKSGTASVVCLLNNFYPREAKVQWKVDNALQSGNSQESVTEQDSKDSTYSLSSTLTLSKADYEKHKVYACEVTHQGLSSPVTKSFNRGEC | 17.4 nM | 0.0067 nM | – | –
9 | DVD1622 (bispecific antibody, human IgG1, kappa) heavy: not shown light: DIQMTQSPSSLSASVGDRVTITCRASSGIISYIDWFQQKPGKAPKRLIYATFDLASGVPSRFSGSGSGTDYTLTISSLQPEDFATYYCRQVGSYPETFGQGTKLEIKRTVAAPDIQMTQSPSSLSASVGDRVTITCRASGNIHNYLTWYQQTPGKAPKLLIYNAKTLADGVPSRFSGSGSGTDYTFTISSLQPEDIATYYCQHFWSIPYTFGQGTKLQITRTVAAPSVFIFPPSDEQLKSGTASVVCLLNNFYPREAKVQWKVDNALQSGNSQESVTEQDSKDSTYSLSSTLTLSKADYEKHKVYACEVTHQGLSSPVTKSFNRGEC | 3.92 nM | 0.0083 nM | – | –
10 | DVD1619 (bispecific antibody, human IgG1, kappa) heavy: not shown light: DIQMTQSPSSLSASVGDRVTITCRASGNIHNYLTWYQQTPGKAPKLLIYNAKTLADGVPSRFSGSGSGTDYTFTISSLQPEDIATYYCQHFWSIPYTFGQGTKLQITRTVAAPDIQMTQSPSSLSASVGDRVTITCRASSGIISYIDWFQQKPGKAPKRLIYATFDLASGVPSRFSGSGSGTDYTLTISSLQPEDFATYYCRQVGSYPETFGQGTKLEIKRTVAAPSVFIFPPSDEQLKSGTASVVCLLNNFYPREAKVQWKVDNALQSGNSQESVTEQDSKDSTYSLSSTLTLSKADYEKHKVYACEVTHQGLSSPVTKSFNRGEC | – | – | 0.139 nM | 0.0345 nM
11 | DVD1621 (bispecific antibody, human IgG1, kappa) heavy: not shown light: DIQMTQSPSSLSASVGDRVTITCRASGNIHNYLTWYQQTPGKAPKLLIYNAKTLADGVPSRFSGSGSGTDYTFTISSLQPEDIATYYCQHFWSIPYTFGQGTKLQITRTVAAPDIQMTQSPSSLSASVGDRVTITCRASSGIISYIDWFQQKPGKAPKRLIYATFDLASGVPSRFSGSGSGTDYTLTISSLQPEDFATYYCRQVGSYPETFGQGTKLEIKRTVAAPSVFIFPPSDEQLKSGTASVVCLLNNFYPREAKVQWKVDNALQSGNSQESVTEQDSKDSTYSLSSTLTLSKADYEKHKVYACEVTHQGLSSPVTKSFNRGEC | – | – | 0.0114 nM | 0.0397 nM
12 | DVD1624 (bispecific antibody, human IgG1, kappa) heavy: not shown light: DIQMTQSPSSLSASVGDRVTITCRASSGIISYIDWFQQKPGKAPKRLIYATFDLASGVPSRFSGSGSGTDYTLTISSLQPEDFATYYCRQVGSYPETFGQGTKLEIKRTVAAPDTQVTQSPSSLSASVGDRVTITCITSTDIDVDMNWYQQKPGKPPKLLISQGNTLRPGVPSRFSSSGSGTDFTFTISSLQPEDFATYYCLQSDNLPLTFGQGTKLEIKRTVAAPSVFIFPPSDEQLKSGTASVVCLLNNFYPREAKVQWKVDNALQSGNSQESVTEQDSKDSTYSLSSTLTLSKADYEKHKVYACEVTHQGLSSPVTKSFNRGEC | > 20 nM | 0.0042 nM | – | –
13 | DVD1615 (bispecific antibody, human IgG1, kappa) heavy: not shown light: DTVVTQSPAFLSVTPGEKVTITCITSTDIDVDMNWYQQKPDQPPKLLISQGNTLRPGVPSRFSSSGSGTDFTFTISSLEAEDAATYYCLQSDNLPLTFGQGTKLEIKRTVAAPSVFIFPPEIVLTQSPDFQSVTPKEKVTITCRASQNIGSELHWYQQKPDQSPKLLIKYASHSISGVPSRFSGSGSGTDFTLTINGLEAEDAATYYCHQSDTLPHTFGQGTKVDIKRTVAAPSVFIFPPSDEQLKSGTASVVCLLNNFYPREAKVQWKVDNALQSGNSQESVTEQDSKDSTYSLSSTLTLSKADYEKHKVYACEVTHQGLSSPVTKSFNRGEC | – | – | 0.191 nM | 0.061 nM
14 | DVD1623 (bispecific antibody, human IgG1, kappa) heavy: not shown light: DTQVTQSPSSLSASVGDRVTITCITSTDIDVDMNWYQQKPGKPPKLLISQGNTLRPGVPSRFSSSGSGTDFTFTISSLQPEDFATYYCLQSDNLPLTFGQGTKLEIKRTVAAPDIQMTQSPSSLSASVGDRVTITCRASSGIISYIDWFQQKPGKAPKRLIYATFDLASGVPSRFSGSGSGTDYTLTISSLQPEDFATYYCRQVGSYPETFGQGTKLEIKRTVAAPSVFIFPPSDEQLKSGTASVVCLLNNFYPREAKVQWKVDNALQSGNSQESVTEQDSKDSTYSLSSTLTLSKADYEKHKVYACEVTHQGLSSPVTKSFNRGEC | – | – | 0.16 nM | 0.0238 nM
